Tests used:
DP (DUF283-PAZ) = target: T1, DP (DUF283-PAZ) (Homo sapiens, UniProt Q9UPY3 605-1068); experiment: filter binding
T1 sequence: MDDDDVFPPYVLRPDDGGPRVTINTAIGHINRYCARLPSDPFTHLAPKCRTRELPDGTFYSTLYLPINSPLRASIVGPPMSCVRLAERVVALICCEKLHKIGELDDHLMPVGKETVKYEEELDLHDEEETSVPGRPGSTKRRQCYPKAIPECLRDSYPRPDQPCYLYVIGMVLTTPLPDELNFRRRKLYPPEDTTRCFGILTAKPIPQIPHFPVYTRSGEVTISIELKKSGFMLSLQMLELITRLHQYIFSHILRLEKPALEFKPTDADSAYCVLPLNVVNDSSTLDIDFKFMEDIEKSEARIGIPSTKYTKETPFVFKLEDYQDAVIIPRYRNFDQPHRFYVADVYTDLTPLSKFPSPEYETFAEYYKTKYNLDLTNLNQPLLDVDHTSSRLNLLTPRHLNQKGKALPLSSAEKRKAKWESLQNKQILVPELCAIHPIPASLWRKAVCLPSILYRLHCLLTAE

MBP-ATPase/hel = target: T2, MBP-ATPase/hel (Homo sapiens, UniProt Q9UPY3 1-604); experiment: filter binding
T2 sequence: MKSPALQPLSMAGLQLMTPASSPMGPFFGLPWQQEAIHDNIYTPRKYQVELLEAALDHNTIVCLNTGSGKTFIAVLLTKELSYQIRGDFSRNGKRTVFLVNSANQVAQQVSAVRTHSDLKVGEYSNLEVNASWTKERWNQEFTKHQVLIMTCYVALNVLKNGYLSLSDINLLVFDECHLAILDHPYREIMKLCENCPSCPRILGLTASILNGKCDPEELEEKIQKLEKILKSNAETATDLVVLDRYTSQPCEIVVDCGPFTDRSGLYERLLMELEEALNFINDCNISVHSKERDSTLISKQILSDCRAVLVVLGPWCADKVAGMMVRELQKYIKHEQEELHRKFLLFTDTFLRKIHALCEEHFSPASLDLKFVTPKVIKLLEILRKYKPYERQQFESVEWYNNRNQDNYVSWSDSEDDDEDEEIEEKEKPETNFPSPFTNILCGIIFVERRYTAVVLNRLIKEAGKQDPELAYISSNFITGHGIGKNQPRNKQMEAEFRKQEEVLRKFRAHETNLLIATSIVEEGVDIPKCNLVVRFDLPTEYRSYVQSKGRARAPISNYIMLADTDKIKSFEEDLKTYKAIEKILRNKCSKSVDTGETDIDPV

[1] = target: T3, hDcr-C (RNase IIIa, IIIb, dsRBD) (Homo sapiens, UniProt Q9UPY3 1235-1922); experiment: filter binding
T3 sequence: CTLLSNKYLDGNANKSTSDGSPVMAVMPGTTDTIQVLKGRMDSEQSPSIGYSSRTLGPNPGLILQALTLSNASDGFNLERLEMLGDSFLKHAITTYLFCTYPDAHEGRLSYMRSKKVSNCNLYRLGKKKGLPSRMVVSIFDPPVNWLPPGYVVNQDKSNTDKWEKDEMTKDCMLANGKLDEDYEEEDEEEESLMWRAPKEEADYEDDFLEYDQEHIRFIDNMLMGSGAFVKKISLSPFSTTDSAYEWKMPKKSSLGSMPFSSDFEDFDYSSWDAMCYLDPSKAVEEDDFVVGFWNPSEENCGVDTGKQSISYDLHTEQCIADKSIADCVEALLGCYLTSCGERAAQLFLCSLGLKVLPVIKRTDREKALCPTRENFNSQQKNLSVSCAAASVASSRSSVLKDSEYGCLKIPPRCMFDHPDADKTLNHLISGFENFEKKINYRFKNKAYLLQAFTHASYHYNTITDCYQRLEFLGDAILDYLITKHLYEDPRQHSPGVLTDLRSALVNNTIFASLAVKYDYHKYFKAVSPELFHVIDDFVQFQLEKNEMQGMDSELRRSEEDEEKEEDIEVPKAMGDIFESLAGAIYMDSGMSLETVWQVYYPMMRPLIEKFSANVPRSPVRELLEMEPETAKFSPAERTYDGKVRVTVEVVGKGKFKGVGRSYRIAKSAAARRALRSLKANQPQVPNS

[2] = target: FL-hDicer (full-length human Dicer) (Homo sapiens, UniProt Q9UPY3 1-1922); experiment: filter binding
[3] = target: T4, ATPase/helicase domain of human Dicer (1-604) fused with maltose-binding protein (human, UniProt Q9UPY3 1-604); experiment: SEC
T4 sequence (looked up): T2 sequence

[4] = target: T5, MBP-ATPase/hel domain of human Dicer with a C-terminal hemagglutinin (HA) epitope tag (human, UniProt Q9UPY3 1-604); experiment: co-IP
T5 sequence (looked up): T2 sequence

[5] = target: T6, human Dicer C-terminal fragment (hDcr-C: 1235-1922), bacterially expressed (human, UniProt Q9UPY3 1235-1922); experiment: SEC
T6 sequence (looked up): T3 sequence

FL-hDicer (full-length human Dicer), sequence (Q9UPY3 whole entry, the tested form may be a part): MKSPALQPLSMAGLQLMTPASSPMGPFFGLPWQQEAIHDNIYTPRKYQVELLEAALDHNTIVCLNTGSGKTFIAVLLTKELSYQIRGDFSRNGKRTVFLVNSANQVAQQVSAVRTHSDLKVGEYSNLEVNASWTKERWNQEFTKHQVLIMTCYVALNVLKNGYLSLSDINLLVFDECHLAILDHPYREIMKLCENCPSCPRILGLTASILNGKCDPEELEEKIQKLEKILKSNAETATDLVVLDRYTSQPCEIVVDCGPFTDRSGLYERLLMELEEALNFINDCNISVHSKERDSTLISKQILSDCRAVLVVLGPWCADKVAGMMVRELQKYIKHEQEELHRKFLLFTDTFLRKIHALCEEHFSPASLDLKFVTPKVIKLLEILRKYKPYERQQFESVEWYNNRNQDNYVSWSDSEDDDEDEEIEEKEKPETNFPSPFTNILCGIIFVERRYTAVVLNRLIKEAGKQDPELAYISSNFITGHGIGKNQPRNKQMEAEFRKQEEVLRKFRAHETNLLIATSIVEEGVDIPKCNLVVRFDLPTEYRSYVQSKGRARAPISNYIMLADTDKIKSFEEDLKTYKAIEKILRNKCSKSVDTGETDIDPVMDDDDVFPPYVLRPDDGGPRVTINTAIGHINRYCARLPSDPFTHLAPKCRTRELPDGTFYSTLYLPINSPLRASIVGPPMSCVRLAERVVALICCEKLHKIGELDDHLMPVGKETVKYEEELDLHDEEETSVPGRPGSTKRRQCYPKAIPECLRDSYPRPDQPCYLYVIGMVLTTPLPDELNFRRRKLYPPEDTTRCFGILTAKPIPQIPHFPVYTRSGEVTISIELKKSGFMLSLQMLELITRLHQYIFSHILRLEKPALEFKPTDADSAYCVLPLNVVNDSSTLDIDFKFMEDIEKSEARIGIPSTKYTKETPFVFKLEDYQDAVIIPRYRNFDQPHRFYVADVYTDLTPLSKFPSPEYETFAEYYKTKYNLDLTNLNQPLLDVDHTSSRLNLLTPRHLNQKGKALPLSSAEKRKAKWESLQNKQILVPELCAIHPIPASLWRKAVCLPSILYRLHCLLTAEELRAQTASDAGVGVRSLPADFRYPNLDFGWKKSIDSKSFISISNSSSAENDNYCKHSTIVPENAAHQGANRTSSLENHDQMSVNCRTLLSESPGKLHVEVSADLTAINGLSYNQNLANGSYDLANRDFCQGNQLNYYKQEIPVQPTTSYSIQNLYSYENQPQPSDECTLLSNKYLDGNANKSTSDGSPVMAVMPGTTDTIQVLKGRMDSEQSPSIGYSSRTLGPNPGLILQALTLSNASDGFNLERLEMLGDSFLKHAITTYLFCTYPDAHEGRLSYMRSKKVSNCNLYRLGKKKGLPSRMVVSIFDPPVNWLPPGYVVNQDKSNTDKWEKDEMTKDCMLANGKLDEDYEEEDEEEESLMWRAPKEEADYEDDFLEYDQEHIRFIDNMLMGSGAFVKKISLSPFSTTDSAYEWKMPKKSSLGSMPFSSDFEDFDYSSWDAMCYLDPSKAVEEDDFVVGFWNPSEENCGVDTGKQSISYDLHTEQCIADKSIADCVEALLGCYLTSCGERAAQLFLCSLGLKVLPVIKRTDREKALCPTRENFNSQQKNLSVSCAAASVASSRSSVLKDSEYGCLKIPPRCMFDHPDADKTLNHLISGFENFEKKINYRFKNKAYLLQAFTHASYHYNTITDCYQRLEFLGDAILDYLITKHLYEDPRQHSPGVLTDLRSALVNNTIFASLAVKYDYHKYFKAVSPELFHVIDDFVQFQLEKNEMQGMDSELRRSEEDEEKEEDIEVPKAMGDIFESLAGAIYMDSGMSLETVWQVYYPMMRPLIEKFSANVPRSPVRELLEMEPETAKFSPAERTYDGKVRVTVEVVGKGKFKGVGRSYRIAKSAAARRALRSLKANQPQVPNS

B1: 37ab (dsRNA)
RNA 1: UGAGGUAGUAGGUUGUAUAGUUUGAAAGUUCACGAUU
RNA 2: UCGUGAACUUUCAAACUAUACAACCUACUACCUCAUU
Kd (DP (DUF283-PAZ)): 200 ± 34 nM | Kd (MBP-ATPase/hel): 476 ± 30 nM | Kd [1]: 300 ± 40 nM | Kd [2]: 53 ± 8 nM

B2: human TAR-RNA binding protein (hTRBP), the larger isoform TRBP2 (natural protein, UniProt Q15633-1 1-366, looked up)
chain: MSEEEQGSGTTTGCGLPSIEQMLAANPGKTPISLLQEYGTRIGKTPVYDLLKAEGQAHQPNFTFRVTVGDTSCTGQGPSKKAAKHKAAEVALKHLKGGSMLEPALEDSSSFSPLDSSLPEDIPVFTAAAAATPVPSVVLTRSPPMELQPPVSPQQSECNPVGALQELVVQKGWRLPEYTVTQESGPAHRKEFTMTCRVERFIEIGSGTSKKLAKRNAAAKMLLRVHTVPLDARDGNEVEPDDDHFSIGVGSRLDGLRNRGPGCTWDSLRNSVGEKILSLRSCSLGSLGALGPACCRVLSELSEEQAFHVSYLDIEELSLSGLCQCLVELSTQPATVCHGSATTREAARGEAARRALQYLKIMAGSK
binding result [3]: binds | binding result [4]: binds

B3: pre-hlet-7a-1 (structured_RNA)
RNA: UGAGGUAGUAGGUUGUAUAGUUUUAGGGUCACACCCACCACUGGGAGAUAACUAUACAAUCUACUGUCUUACC
Kd (DP (DUF283-PAZ)): ~1000 nM | Kd (MBP-ATPase/hel): 96 ± 10 nM | Kd [2]: 39 ± 5 nM

B4: 21ab (siRNA/product mimic) (dsRNA)
RNA 1: UAUACAAUGUGCUAGCUUUCU
RNA 2: AAAGCUAGCACAUUGUAUAGU
Kd (DP (DUF283-PAZ)): 220 ± 40 nM | Kd [2]: 144 ± 23 nM

B5: human Dicer DUF283-PAZ fragment (DP: 605-1068) (domain or fragment, UniProt Q9UPY3 605-1068, looked up)
chain: T1 sequence
binding result [5]: binds
